In patent US8288112B2, “Protein, an antibody and measurement of the protein” (P&M Venge AB, priority 2006, dated 2012):

Key:
[1] = Enzyme assay: free fatty acid release from phospholipid substrates (NEFA-C kit); format: biochemical; details: for activity increase by pre-incubation with released materials from PMA-induced neutrophils: partly activated protein 0.5 μg stored for 19 weeks
Protocol: Enzyme assay. The reaction mixture (40 μl final volume) contained 10 mM substrates, 100 mM phosphate buffer containing 3 mM of sodium azide (NaN3) and 0.5% Triton X-100, pH 7.4, and 0.5 μg of enzyme or as indicated. Since the formation of the product (fatty acid) was linear with time for at least 24 h under the standard conditions, the reaction mixture was incubated for 18-20 h and the reaction was stopped by cooling on ice. Free fatty acid (FFA) was determined by means of the NEFA-C kit (WAKO chemicals, Neuss, Germany) according to the instructions of the manufacturer.
Experiment A: Didecanoyl-PC was incubated with the purified protein at different time of storage and free fatty acid release was measured. Enzymatic reactions were carried out with 0.5 μg of the purified protein for 20 h at 37° C.
Experiment B: Free fatty acid release from phospholipids, didecanoyl-PC (Dideca-PC), dipalmitoyl-PC (Dipalmi-PC), phosphatidylinositol (PI), phosphatidylethanolamine (PE) and lysophosphatidylcholine (Lyso-PC) was measured. Enzymatic reactions were carried out with 0.5 μg of the purified protein (stored at 4° C. for 15 w) for 18-20 h at 37° C.
Experiment C: The purified protein (stored at 4° C. for 16 w) was preincubated at room temperature or 37° C. for 15 min with released materials (0.5 μg) induced from neutrophils by PMA before incubation with Didecanoyl-PC. Enzymatic reactions were carried out with 0.5 μg of the protein for 20 h at 37° C. and free fatty acid release was measured.
Analyses of the pH optimum, Km and Vmax. The purified protein (0.5 μg) was added to tubes containing Didecanoyl-PC at varying pH (4.0-9.0). The Km and Vmax were calculated from Hanes plots of s/vi on Didecanoyl-PC concentration (s).

[2] = Positional specificity (sn-2) assay with radiolabeled phosphatidylcholine; format: biochemical; details: 1-palmitoyl-2-[1-14C]palmitoyl-PC, 20 h at 37° C.
Protocol: Positional specificity of the purified enzyme was determined using 1-palmitoyl-2-hydroxyl-phosphatidylcholine (1-palmitoyl-2-hydroxyl-PC) and 1-palmitoyl-2-[1-^14C]palmitoyl-phosphatidylcholine (1-palmitoyl-2-[1-^14C]palmitoyl-PC) as substrates. The hydrolyzing activity of the enzyme at the position of sn-1 acyl ester bonds of glycerophospholipids was determined as described above using 1-palmitoyl-2-hydroxyl-PC as substrate. […] Radiolabeled fatty acids were quantified by scintillation counting.
Experiment D: Detection of phopholipase A2 activity. Radioactive phospholipid, 1-palmitoyl-2-[1-^14C]palmitoyl-PC was incubated without (Control) or with 1 μg of the purified protein (stored at 4° C. 16 w) for 20 h at 37° C. and radioactivity was counted as described in the materials and methods section.

pH optimum ([1]; didecanoyl-PC as substrate, incubated at 37° C.): 7.4 | deacylation activity ([1]; freshly purified protein, didecanoyl-PC, dipalmitoyl-PC, PI, PE, Lyso-PC substrates): No activity was detected | deacylation activity on didecanoyl-PC ([1]; purified protein stored at 4° C. for some period of time): removed fatty acid from didecanoyl-PC | deacylation activity on Lyso-PC ([1]; stored purified protein): showed deacylation activity | deacylation activity on PE ([1]; stored purified protein): showed deacylation activity
B1: HPLB-II: Novel phospholipase B from human neutrophil granules; about 130 kDa oligomer of 25 and 45 kDa fragments of hypothetical protein FLJ22662 (protein)
chain 1: MPAEKTVQVKNVMDKNGDAYGFYNNSVKTTGWGILEIRAGYGSQTLSNEIIMFVAGFLEGYLTAPHMNDHYTNLYPQLITKPSIMDKVQDFMEKQDKWTRKNIKEYKTDSFWRHTGYVMAQIDGLYVGAK
chain 2: VLPGFENILFAHSSWYTYAAMLRIYKHWDFNIIDKDTSSSRLSFSSYPGFLESLDDFYILSSGLILLQTTNSVFNKTLLKQVIPETLLSWQRVRVANMMADSGKRWADIFSKYNSGTYNNQYMVLDLKKVKLNHSLDKGTLYIVEQIPTYVEYSEQTDVLRKGYWPSYNVPFHEKIYNWSGYPLLVQKLGLDYSYDLAPRAKIFRRDQGKVTDTASMKYIMRYNNYKKDPYSRGDPCNTICCREDLNSPNPSPGGCYDTKVADIYLASQYTSYAISGPTVQGGLPVFRWDRFNKTLHQGMAEVYNFDFITMKPILK
Vmax ([1]; didecanoyl-PC substrate, Hanes plots, protein stored for 15 weeks): 21.4 nM/min/mg | activity increase by pre-incubation with released materials from PMA-induced neutrophils ([1]; pre-incubation 15 min at 37° C.): ~30% | activity increase by pre-incubation with released materials from PMA-induced neutrophils ([1]; pre-incubation 15 min at room temperature): about 10% | deacylation activity on PI ([1]; stored purified protein): showed deacylation activity | removal of fatty acid from the sn-2 position [2]: removed fatty acid from the sn-2 position
